Target: U1A N-terminal RRM wild type (human, UniProt P09012 2-98)
Assay: SPR

Sequence of U1A N-terminal RRM wild type (P09012 2-98): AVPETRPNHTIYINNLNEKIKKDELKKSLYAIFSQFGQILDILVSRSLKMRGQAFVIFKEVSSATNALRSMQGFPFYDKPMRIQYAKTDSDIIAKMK

B1: U1hpII (structured_RNA)
RNA: AGCUUAUCCAUUGCACUCCGGAUAAGCU
With B1 as the binder, how does the Kd read?
The Kd was 0.07 nM.

From paper PMC1326249
